Test results: article PMC10367427 (Frontiers in Immunology, 2023)

Target: T1, SARS-CoV-2 full-length nucleocapsid protein (NP) (SARS-CoV-2, reference (Wuhan-Hu-1; Gene …, UniProt P0DTC9)
T1 construct: also called full-length NP
Test: ELISA
Conditions: both partners purified

B1: NbON10-NanoLuc fusion protein (VHH)
VHH: QVQLVQSGGGLVQPGGSLRLSCAASGLRLGYYTIAWFRQAPGKEREGISCISRSDGSTYYADSVKGRFTISTDNAENTVYLQMNSLKPEDTAVYYCAADFVPASHCAVANTRGYDYWGQGTQVTVSS
Q: Does B1 bind?
A: Result: binds
